Data from patent US20230265198A1 (TWIST BIOSCIENCE, published 2023).
Where a chain is given by its changes, count along the chain named.

B1: NRP1-257 (antibody, IgG2, V domains shown)
VH: EVQLLESGGGLVQPGGSLRLSCAASGFTFSRYGMSWVRQAPGKGLEWVSTISGSGGSTSYADSVKGRFTISRDNSKNTLYLQMNSLRAEDTAVYYCARASHVDIPRRAPKRRHSFDSWGQGTLVTVSS
VL: DIQMTQSPSSLSASVGDRVTITCRASQTISNYVNWYQQKPGKAPKLLIYAASSLHAGVPSRFSGSGSGTDFTLTISSLQPEDFATYYCQQGYSTPLTFGGGTKVEIK
B2: NRP1-258 (antibody, IgG2, V domains shown)
VH: EVQLLESGGGLVQPGGSLRLSCAASGFRFGNYAMSWVRQAPGKGLEWVSAISGSAGRTYYADSVKGRFTISRDNSKNTLYLQMNSLRAEDTAVYYCARAPFQSRIGLAGTRRHKRDNFDQWGQGTLVTVSS
VL: DIQMTQSPSSLSASVGDRVTITCRASQSIDNFLNWYQQKPGKAPKLLIYGASKLQRGVPSRFSGSGSGTDFTLTISSLQPEDFATYYCQQSYSSPPVTFGGGTKVEIK
B3: NRP1-264 (antibody, IgG2, V domains shown)
VH: EVQLLESGGGLVQPGGSLRLSCAASGFTFRGYAMSWVRQAPGKGLEWVSTISGSGGVTYYADSVKGRFTISRDNSKNTLYLQMNSLRAEDTAVYYCARVRVDARPRGMMSRYYGMDVWGQGTLVTVSS
VL: B1 VL with T28S, Y32R, V33L, A50G, H55Q, A56P, G91S, Y92F, S93N, L96R
B4: NRP1-265 (antibody, IgG2, V domains shown)
VH: EVQLLESGGGLVQPGGSLRLSCAASGFTFGKYAMTWVRQAPGKGLEWVSGISGSGGRTNYADSVKGRFTISRDNSKNTLYLQMNSLRAEDTAVYYCARDFVAWRGGFRRYYSYNGMDVWGQGTLVTVSS
VL: DIQMTQSPSSLSASVGDRVTITCRASQYVSTYLNWYQQKPGKAPKLLIYGTSRLQSGVPSRFSGSGSGTDFTLTISSLQPEDFATYYCQQSYSTPKTFGGGTKVEIK
B5: NRP1-268 (antibody, IgG2, V domains shown)
VH: EVQLLESGGGLVQPGGSLRLSCAASGFIFSTYALSWVRQAPGKGLEWVSGINGSGASTYYADSVKGRFTISRDNSKNTLYLQMNSLRAEDTAVYYCAREGQGWTSLLPRPSQRRPQRRPPYYGLDVWGQGTLVTVSS
VL: B4 VL with A25G, Y28S, V29I, S30T, T31R, Y32F, G50A, Y92H, T94F, K96R
B6: NRP1-270 (antibody, IgG2, V domains shown)
VH: EVQLLESGGGLVQPGGSLRLSCAASGFTFSIYAMGWVRQAPGKGLEWVSSISGRGGSIYYADSVKGRFTISRDNSKNTLYLQMNSLRAEDTAVYYCARSAGTFDYWGQGTLVTVSS
VL: B1 VL with T28S, S30R, N31S, Y32H, V33L, L54V, H55E, A56S, G91S, T94A
B7: NRP1-274 (antibody, IgG2, V domains shown)
VH: EVQLLESGGGLVQPGGSLRLSCAASGFTFSKYAMNWVRQAPGKGLEWVSTISGSGGSTSYADSVKGRFTISRDNSKNTLYLQMNSLRAEDTAVYYCARGQDIKRNVMRRGGRLNWFDPWGQGTLVTVSS
VL: B4 VL with Y28S, V29I, S30G, T31S, Y32N, T51A, S52T, R53N, S93R, K96L
B8: NRP1-276 (antibody, IgG2, V domains shown)
VH: EVQLLESGGGLVQPGGSLRLSCAASGFPFTSYAMSWVRQAPGKGLEWVSAISSSGTGTYYADSVKGRFTISRDNSKNTLYLQMNSLRAEDTAVYYCARLKRGGTNLVRKATRYQFYGMDAWGQGTLVTVSS
VL: B4 VL with Y28S, T31R, T51A, R53T, S56A, S93T, K96L
B9: NRP1-278 (antibody, IgG2, V domains shown)
VH: EVQLLESGGGLVQPGGSLRLSCAASGFTFRRYAMSWVRQAPGKGLEWVSAISGSGDRTYYADSVKGRFTISRDNSKNTLYLQMNSLRAEDTAVYYCARDRGLRYFDWSFDYWGQGTLVTVSS
VL: DIQMTQSPSSLSASVGDRVTITCRTSQSISSYLNWYQQKPGKAPKLLIYAAAGLRGGVPSRFSGSGSGTDFTLTISSLQPEDFATYYCQQSFTTPWTFGGGTKVEIK
B10: NRP1-279 (antibody, IgG2, V domains shown)
VH: EVQLLESGGGLVQPGGSLRLSCAASGFTFSRHAMSWVRQAPGKGLEWVSGISGSGGRTHYADSVKGRFTISRDNSKNTLYLQMNSLRAEDTAVYYCARDPSTIAARRANHYYMDVWGQGTLVTVSS
VL: B9 VL with S31N, Y32F, A50R, A52S, G53T, R55Q, G56T, F92Y, T93K, W96R
B11: NRP1-281 (antibody, IgG2, V domains shown)
VH: EVQLLESGGGLVQPGGSLRLSCAASGFTFRSLAVSWVRQAPGKGLEWVSTITGSGGATYYADSVKGRFTISRDNSKNTLYLQMNSLRAEDTAVYYCVRALAGRRDHWGQGTLVTVSS
VL: B2 VL with D30R, N31T, F32S, G50A, K53A, Q55H, R56S, S94T, P95L, V97I
B12: NRP1-284 (antibody, IgG2, V domains shown)
VH: EVQLLESGGGLVQPGGSLRLSCAASGFTFSSSAMNWVRQAPGKGLEWVSAITSSGGSTYYADSVKGRFTISRDNSKNTLYLQMNSLRAEDTAVYYCARVTKMSPRSVGRRLRKGDGLDVWGQGTLVTVSS
VL: B4 VL with Y28S, V29I, T31R, Y32S, N34S, G50S, T51A, Q89L, T94S, K96R
B13: NRP1-285 (antibody, IgG2, V domains shown)
VH: EVQLLESGGGLVQPGGSLRLSCAASGFTLSNYGMSWVRQAPGKGLEWVSTISGSGSGTYYADSVKGRFTISRDNSKNTLYLQMNSLRAEDTAVYYCARAGKAFDYWGQGTLVTVSS
VL: B1 VL with T28S, I29V, N31S, V33L, N34S, S52T, H55E, A56S, G91S, S93R
B14: NRP1-286 (antibody, IgG2, V domains shown)
VH: EVQLLESGGGLVQPGGSLRLSCAASGFTLSAYAMNWVRQAPGKGLEWVSSISGSGGATYYADSVKGRFTISRDNSKNTLYLQMNSLRAEDTAVYYCARVMKTTRRIVGRRLRKGDGLDVWGQGTLVTVSS
VL: DIQMTQSPSSLSASVGDRVTITCRASQSIRNNLSWYQQKPGKAPKLLIYAASSLQTGVPSRFSGSGSGTDFTLTISSLQPEDFATYYCQQSFTIPRTFGGGTKVEIK
B15: NRP1-287 (antibody, IgG2, V domains shown)
VH: EVQLLESGGGLVQPGGSLRLYCAASGFTFGSYGMSWVRQAPGKGLEWVSSISGSGGSTYYTDSVKGRFTISRDNSKNTLYLQMNSLRAEDTAVYYCARDLARGTMPRGVIIPHNWFDPWGQGTLVTVSS
VL: B1 VL
B16: NRP1-288 (antibody, IgG2, V domains shown)
VH: EVQLLESGGGLVQPGGSLRLSCAASGFTFSTFAMSWVRQAPGKGLEWVSTISGSGTSTYYADSVKGRFTISRDNSKNTLYLQMNSLRAEDTAVYYCARFPGDRGYYHYYMDVWGQGTLVTVSS
VL: B4 VL with Y28S, V29I, S30A, T31R, G50R, T51A, T72A, Y92F, T94P, K96F
B17: NRP1-289 (antibody, IgG2, V domains shown)
VH: EVQLLESGGGLVQPGGSLRLSCAASGFTISSSAMGWVRQAPGKGLEWVSALSGSGGSKYYADSVKGRFTISRDNSKNTLYLQMNSLRAEDTAVYYCAKEALPRASRRAAAVRYFHHWGQGTLVTVSS
VL: DIQMTQSPSSLSASVGDRVTITCRASQNIVRYLNWYQQKPGKAPKLLIYTASNLQTGVPSRFSGSGSGTDFTLTISSLQPEDFATYYCQESYSRTFGGGTKVEIK
B18: NRP1-290 (antibody, IgG2, V domains shown)
VH: EVQLLESGGGLVQPGGSLRLSCAASGFTFRNYAMTWVRQAPGKGLEWVSGISGSGGSTYYSDSVKGRFTISRDNSKNTLYLQMNSLRAEDTAVYYCARGRRGMPTPDTVRKMSKSHLYFDSWGQGTLVTVSS
VL: B4 VL with A25T, Y28S, V29I, T31R, T51A, R53T, S91N, S93I, T94I, K96W
B19: NRP1-292 (antibody, IgG2, V domains shown)
VH: EVQLLESGGGLVQPGGSLRLSCAASGFTLSSYAMAWVRQAPGKGLEWVSAIRGSGGTTYYADSVKGRFTISRDNSKNTLYLQMNSLRAEDTAVYYCARRGRAPRMVRGVVNRRPYYFDYWGQGTLVTVSS
VL: B4 VL with A25T, Y28S, V29I, S30A, T51A, L54S, S93F, K96P
B20: NRP1-299 (antibody, IgG2, V domains shown)
VH: EVQLLESGGGLVQPGGSLRLSCAASGFTFRRYAMSWVRQAPGKGLEWVATISGSGGSTYYADSVKGRFTISRDNSKNTLYLQMNSLRAEDTAVYYCARGGNGSNRRPSLLPRNRAAAIGFESAFDVWGQGTLVTVSS
VL: B4 VL with Y28T, V29I, S30A, T31N, G50R, T51A, S93N, K96Y
B21: NRP1-3 (VHH)
VHH: EVQLVESGGGLVQPGGSLRLSCAASGEPTFSSVAMGWFRQAPGKEREWVAEIYPSGSTVYADSVKGRFTISADNSKNTAYLQMNSLKPEDTAVYYCAKTNWNDWGAFDIWGQGTLVTVSS
B22: NRP1-19 (VHH)
VHH: EVQLVESGGGLVQPGGSLRLSCAASGIAFRIRTMGWFRQAPGKEREFVAGISRSGASTAYADSVKGRFTISADNSKNTAYLQMNSLKPEDTAVYYCTTDRWYSSNWWGQGTLVTVSS
B23: NRP1-20 (VHH)
VHH: EVQLVESGGGLVQPGGSLRLSCAASGSTFSLFAMGWFRQAPGKEREFVAAISRSGGLTSYADSVKGRFTISADNSKNTAYLQMNSLKPEDTAVYYCAKAAGDWTYDEDYYYMDVWGQGTLVTVSS
B24: NRP1-21 (VHH)
VHH: EVQLVESGGGLVQPGGSLRLSCAASGRSRYGMGWFRQAPGKEREFVAAITRSGKTTYYADSVKGRFTISADNSKNTAYLQMNSLKPEDTAVYYCARRLLSGSPSRSYYFDYWGQGTLVTVSS
B25: NRP1-24 (VHH)
VHH: EVQLVESGGGLVQPGGSLRLSCAASGFKFNDSYMGWFRQAPGKEREFVATIWWTFDAPYYADSVKGRFTISADNSKNTAYLQMNSLKPEDTAVYYCAVKERSTGWDFAWGQGTLVTVSS

What follows are binders tested against T1, neuropilin-1 (NRP1) on HEK293 cells overexpressing NRP1 (UniProt O14786 22-923, limits assumed) (assay: flow cytometry, HEK293-NRP1 vs HEK293).
T1 construct: whole, on cells
With B1 the “100 nM FACS (MFI Ratio)” value was 0.9. In the case of B2, the “100 nM FACS (MFI Ratio)” value is reported as 0.7. In the case of B3, the “100 nM FACS (MFI Ratio)” value is reported as 3. For B4, the “100 nM FACS (MFI Ratio)” value was 2.5. For B5, the “100 nM FACS (MFI Ratio)” value was 2.1. In the case of B6, the “100 nM FACS (MFI Ratio)” value is reported as 3. B7 was tested, and the “100 nM FACS (MFI Ratio)” value was 1. For B8, the “100 nM FACS (MFI Ratio)” value was 2.6. For B9, the “100 nM FACS (MFI Ratio)” value was 3. In the case of B10, the “100 nM FACS (MFI Ratio)” value is reported as 0.7. With B11 the “100 nM FACS (MFI Ratio)” value was 1.4. For B12, the “100 nM FACS (MFI Ratio)” value was 1. In the case of B13, the “100 nM FACS (MFI Ratio)” value is reported as 1.3. B14 was tested, and the “100 nM FACS (MFI Ratio)” value was 1.4. For B15, the “100 nM FACS (MFI Ratio)” value was 0.4. In the case of B16, the “100 nM FACS (MFI Ratio)” value is reported as 3.9. For B17, the “100 nM FACS (MFI Ratio)” value was 0.9. With B18 the “100 nM FACS (MFI Ratio)” value was 0.6. B19 was tested, and the “100 nM FACS (MFI Ratio)” value was 0.4. With B20 the “100 nM FACS (MFI Ratio)” value was 2.5. B21 was tested, and the “100 nM FACS (MFI Ratio)” value was 13.4. In the case of B22, the “100 nM FACS (MFI Ratio)” value is reported as 420. For B23, the “100 nM FACS (MFI Ratio)” value was 50.9. For B24, the “100 nM FACS (MFI Ratio)” value was 1. B25 was tested, and the “100 nM FACS (MFI Ratio)” value was 6.4.
